Source: US20230357348A1 (AstraZeneca / MedImmune, published 2023)
Starred links: 1 amine or outer side, 2 acyl side, 3 side chain; linkers in the order of their positions; H or OH if unused. Non-standard residues stand in square brackets, D forms with d. Groups on a side chain read outwards from the residue. No end group written: not given here. *: point of attachment. C20 diacid = O=C(O)CCCCCCCCCCCCCCCCCCC(=O)*; C18 diacid = O=C(O)CCCCCCCCCCCCCCCCC(=O)*; γGlu = O=C(O)[C@H](CCC(=O)[*:2])N[*:1]; αMeF = C[C@](N)(Cc1ccccc1)C(=O)O; AEEA = NCCOCCOCC(=O)O; Aib = CC(C)(N)C(=O)O

B1: Peptide 407 (peptide)
peptide: H[Aib]QGTFTSDVSK[αMeF]LDTK([AEEA-AEEA-γGlu-C20 diacid])RAQDFVRWLEA[Aib]G-OH
modifications: N-terminus assumed
SMILES: CC(C)C[C@H](NC(=O)[C@H](Cc1c[nH]c2ccccc12)NC(=O)[C@H](CCCNC(=N)N)NC(=O)[C@@H](NC(=O)[C@H](Cc1ccccc1)NC(=O)[C@H](CC(=O)O)NC(=O)[C@H](CCC(N)=O)NC(=O)[C@H](C)NC(=O)[C@H](CCCNC(=N)N)NC(=O)[C@H](CCCCNC(=O)COCCOCCNC(=O)COCCOCCNC(=O)CC[C@H](NC(=O)CCCCCCCCCCCCCCCCCCC(=O)O)C(=O)O)NC(=O)[C@@H](NC(=O)[C@H](CC(=O)O)NC(=O)[C@H](CC(C)C)NC(=O)[C@](C)(Cc1ccccc1)NC(=O)[C@H](CCCCN)NC(=O)[C@H](CO)NC(=O)[C@@H](NC(=O)[C@H](CC(=O)O)NC(=O)[C@H](CO)NC(=O)[C@@H](NC(=O)[C@H](Cc1ccccc1)NC(=O)[C@@H](NC(=O)CNC(=O)[C@H](CCC(N)=O)NC(=O)C(C)(C)NC(=O)[C@@H](N)Cc1c[nH]cn1)[C@@H](C)O)[C@@H](C)O)C(C)C)[C@@H](C)O)C(C)C)C(=O)N[C@@H](CCC(=O)O)C(=O)N[C@@H](C)C(=O)NC(C)(C)C(=O)NCC(=O)O
B2: Peptide 463 (peptide)
peptide: H[Aib]QGTFTSDVSK[αMeF]LDSK([AEEA-AEEA-γGlu-γGlu-C18 diacid])RAQDFVQWLL[Aib]T-NH2
modifications: N-terminus assumed
SMILES: CC(C)C[C@H](NC(=O)[C@H](Cc1c[nH]c2ccccc12)NC(=O)[C@H](CCC(N)=O)NC(=O)[C@@H](NC(=O)[C@H](Cc1ccccc1)NC(=O)[C@H](CC(=O)O)NC(=O)[C@H](CCC(N)=O)NC(=O)[C@H](C)NC(=O)[C@H](CCCNC(=N)N)NC(=O)[C@H](CCCCNC(=O)COCCOCCNC(=O)COCCOCCNC(=O)CC[C@H](NC(=O)CC[C@H](NC(=O)CCCCCCCCCCCCCCCCC(=O)O)C(=O)O)C(=O)O)NC(=O)[C@H](CO)NC(=O)[C@H](CC(=O)O)NC(=O)[C@H](CC(C)C)NC(=O)[C@](C)(Cc1ccccc1)NC(=O)[C@H](CCCCN)NC(=O)[C@H](CO)NC(=O)[C@@H](NC(=O)[C@H](CC(=O)O)NC(=O)[C@H](CO)NC(=O)[C@@H](NC(=O)[C@H](Cc1ccccc1)NC(=O)[C@@H](NC(=O)CNC(=O)[C@H](CCC(N)=O)NC(=O)C(C)(C)NC(=O)[C@@H](N)Cc1c[nH]cn1)[C@@H](C)O)[C@@H](C)O)C(C)C)C(C)C)C(=O)N[C@@H](CC(C)C)C(=O)NC(C)(C)C(=O)N[C@H](C(N)=O)[C@@H](C)O
B3: Peptide 408 (peptide)
peptide: H[Aib]QGTFTSDVSK[αMeF]LDTK([AEEA-AEEA-γGlu-γGlu-C20 diacid])RAQDFVRWLEA[Aib]G-OH
modifications: N-terminus assumed
SMILES: CC(C)C[C@H](NC(=O)[C@H](Cc1c[nH]c2ccccc12)NC(=O)[C@H](CCCNC(=N)N)NC(=O)[C@@H](NC(=O)[C@H](Cc1ccccc1)NC(=O)[C@H](CC(=O)O)NC(=O)[C@H](CCC(N)=O)NC(=O)[C@H](C)NC(=O)[C@H](CCCNC(=N)N)NC(=O)[C@H](CCCCNC(=O)COCCOCCNC(=O)COCCOCCNC(=O)CC[C@H](NC(=O)CC[C@H](NC(=O)CCCCCCCCCCCCCCCCCCC(=O)O)C(=O)O)C(=O)O)NC(=O)[C@@H](NC(=O)[C@H](CC(=O)O)NC(=O)[C@H](CC(C)C)NC(=O)[C@](C)(Cc1ccccc1)NC(=O)[C@H](CCCCN)NC(=O)[C@H](CO)NC(=O)[C@@H](NC(=O)[C@H](CC(=O)O)NC(=O)[C@H](CO)NC(=O)[C@@H](NC(=O)[C@H](Cc1ccccc1)NC(=O)[C@@H](NC(=O)CNC(=O)[C@H](CCC(N)=O)NC(=O)C(C)(C)NC(=O)[C@@H](N)Cc1c[nH]cn1)[C@@H](C)O)[C@@H](C)O)C(C)C)[C@@H](C)O)C(C)C)C(=O)N[C@@H](CCC(=O)O)C(=O)N[C@@H](C)C(=O)NC(C)(C)C(=O)NCC(=O)O
B4: Peptide 461 (peptide)
peptide: H[Aib]QGTFTSDVSK[αMeF]LDRK([AEEA-AEEA-γGlu-C18 diacid])RAQDFVRWLLAE-NH2
modifications: N-terminus assumed
SMILES: CC(C)C[C@H](NC(=O)[C@H](CC(C)C)NC(=O)[C@H](Cc1c[nH]c2ccccc12)NC(=O)[C@H](CCCNC(=N)N)NC(=O)[C@@H](NC(=O)[C@H](Cc1ccccc1)NC(=O)[C@H](CC(=O)O)NC(=O)[C@H](CCC(N)=O)NC(=O)[C@H](C)NC(=O)[C@H](CCCNC(=N)N)NC(=O)[C@H](CCCCNC(=O)COCCOCCNC(=O)COCCOCCNC(=O)CC[C@H](NC(=O)CCCCCCCCCCCCCCCCC(=O)O)C(=O)O)NC(=O)[C@H](CCCNC(=N)N)NC(=O)[C@H](CC(=O)O)NC(=O)[C@H](CC(C)C)NC(=O)[C@](C)(Cc1ccccc1)NC(=O)[C@H](CCCCN)NC(=O)[C@H](CO)NC(=O)[C@@H](NC(=O)[C@H](CC(=O)O)NC(=O)[C@H](CO)NC(=O)[C@@H](NC(=O)[C@H](Cc1ccccc1)NC(=O)[C@@H](NC(=O)CNC(=O)[C@H](CCC(N)=O)NC(=O)C(C)(C)NC(=O)[C@@H](N)Cc1c[nH]cn1)[C@@H](C)O)[C@@H](C)O)C(C)C)C(C)C)C(=O)N[C@@H](C)C(=O)N[C@@H](CCC(=O)O)C(N)=O
B5: Peptide 140 (peptide)
peptide: H[Aib]QGTFTSDVSK[αMeF]LDTK([AEEA-AEEA-γGlu-C18 diacid])RAQDFVRWLLE[Aib]G-OH
modifications: N-terminus assumed
SMILES: CC(C)C[C@H](NC(=O)[C@H](Cc1c[nH]c2ccccc12)NC(=O)[C@H](CCCNC(=N)N)NC(=O)[C@@H](NC(=O)[C@H](Cc1ccccc1)NC(=O)[C@H](CC(=O)O)NC(=O)[C@H](CCC(N)=O)NC(=O)[C@H](C)NC(=O)[C@H](CCCNC(=N)N)NC(=O)[C@H](CCCCNC(=O)COCCOCCNC(=O)COCCOCCNC(=O)CC[C@H](NC(=O)CCCCCCCCCCCCCCCCC(=O)O)C(=O)O)NC(=O)[C@@H](NC(=O)[C@H](CC(=O)O)NC(=O)[C@H](CC(C)C)NC(=O)[C@](C)(Cc1ccccc1)NC(=O)[C@H](CCCCN)NC(=O)[C@H](CO)NC(=O)[C@@H](NC(=O)[C@H](CC(=O)O)NC(=O)[C@H](CO)NC(=O)[C@@H](NC(=O)[C@H](Cc1ccccc1)NC(=O)[C@@H](NC(=O)CNC(=O)[C@H](CCC(N)=O)NC(=O)C(C)(C)NC(=O)[C@@H](N)Cc1c[nH]cn1)[C@@H](C)O)[C@@H](C)O)C(C)C)[C@@H](C)O)C(C)C)C(=O)N[C@@H](CC(C)C)C(=O)N[C@@H](CCC(=O)O)C(=O)NC(C)(C)C(=O)NCC(=O)O

Key:
[1] = target: human glucagon receptor (hGCGR) (human, UniProt P47871 26-477); assay: cell-based or functional assay
[2] = target: human GLP-1 receptor (hGLP-1R) (human, UniProt P43220 24-463); assay: cell-based or functional assay

Sequence of human glucagon receptor (hGCGR) (P47871 26-477): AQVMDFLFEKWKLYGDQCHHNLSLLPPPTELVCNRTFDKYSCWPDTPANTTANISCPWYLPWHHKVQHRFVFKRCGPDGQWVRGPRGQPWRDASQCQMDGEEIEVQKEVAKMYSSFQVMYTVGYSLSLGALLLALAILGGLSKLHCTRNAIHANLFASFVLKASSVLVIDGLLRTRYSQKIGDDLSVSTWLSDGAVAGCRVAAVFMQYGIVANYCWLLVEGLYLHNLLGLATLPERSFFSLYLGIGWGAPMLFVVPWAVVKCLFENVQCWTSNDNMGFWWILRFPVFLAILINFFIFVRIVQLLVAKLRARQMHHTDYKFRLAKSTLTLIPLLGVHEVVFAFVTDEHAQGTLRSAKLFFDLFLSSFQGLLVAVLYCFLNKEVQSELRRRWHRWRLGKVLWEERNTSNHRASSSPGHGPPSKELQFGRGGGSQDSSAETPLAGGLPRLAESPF

Binder | hGluc-R EC50 (pM) [1] [pM] | hGLP-1R EC50 (pM) [2] [pM]
B1 | 462 | 209
B2 | – | 274
B3 | 828 | 370
H[Aib]QGTFTSDVSK[αMeF]LDTK([AEEA-AEEA-γGlu-γGlu-C20 diacid])RARDFVQWLLE[Aib]G-NH2 [Peptide 458] | 385 | –
B4 | – | 167
B5 | – | 22.7
